The results in this text go back to doi:10.1101/2025.08.26.672322.

Experiment [1] concerns the target Gephyrin Δ199-233. The experiment in a line: ITC. In general terms: ITC needs no label: the signal is the heat of the interaction.
Experiment [2] concerns the target Gephyrin P1 wt. Put plainly: ITC.
The target of experiment [3] is Gephyrin P1 wt. Put plainly: SEC.
In experiment [4] the target is Gephyrin Δ199-233. Put plainly: SEC. (In general: Size exclusion chromatography separates by hydrodynamic size, large species first.)
Experiment [5] has as its target LSβ, fusion protein of lumazine synthase and GlyR β-subunit ICD (pentameric GlyR model). Put plainly: co-sedimentation.

For the substance “GlyR β-subunit ICD peptide (domain or fragment)”, in the experiment with Gephyrin Δ199-233 [1], the KD high-affinity site stood at 50 nM and the KD low-affinity site turned out to be 1540 nM. In the experiment with Gephyrin P1 wt [2], this substance registered a KD high-affinity site of 63 nM and a KD low-affinity site of 1830 nM.
Turning to Gephyrin P1 wt (natural protein), in the experiment with Gephyrin P1 wt [3], the stoichiometry N – broadly, a count of units in the complex or per binding partner – came to 3.
As for Gephyrin Δ199-233 (natural protein), the stoichiometry N with Gephyrin Δ199-233 [4] was determined as 3. In addition, in experiment [5], the gephyrin in the pelleted fraction, fold of wt was found to be 2 fold.
